Assay results taken from PMC5068739 (PLoS ONE, 2016).
Each block holds one compound with its values, some of them ahead of it.

Tests used:
[1] = molecular target: Bradi2g41950 (B. distachyon)
TaABI1 (wheat) [2] = molecular target: TaABI1 (wheat)
AtABI1 (A. thaliana) = AtABI1 (A. thaliana) (UniProt P49597)
TaABI1 (wheat) [3] = molecular target: TaABI1 (wheat); remark: listed apart in the source
[4] = molecular target: T1, Bradi1g37810 (with Bradi2g41950) (Brachypodium distachyon, UniProt I1GXY5); test: receptor-mediated PP2C inhibition, 4-methylumbelliferyl phosphate fluorescence; format: biochemical; conditions: ligand 0.1 uM unless otherwise noted, Mn2+, pH 7.9, 30 °C, n = 1 screen
T1 construct: gene LOC100840898; recombinant from E. coli, Ni-NTA enriched; receptor 196 residues; with Protein phosphatase 2C
T1 sequence (I1GXY5 1-196): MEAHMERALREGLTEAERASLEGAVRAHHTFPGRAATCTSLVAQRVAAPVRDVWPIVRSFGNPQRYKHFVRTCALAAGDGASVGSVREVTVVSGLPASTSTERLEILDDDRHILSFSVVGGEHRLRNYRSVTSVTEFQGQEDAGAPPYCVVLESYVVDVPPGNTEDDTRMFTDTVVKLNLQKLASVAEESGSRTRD

AtPYL6 (with TaABI1) = molecular target: T2, AtPYL6 (with TaABI1) (Arabidopsis thaliana, UniProt Q8S8E3); test: as above; format: biochemical; conditions: ligand 0.1 uM unless otherwise noted, Mn2+, pH 7.9, 30 °C
T2 construct: gene PYL6; recombinant from E. coli, Ni-NTA enriched; the partner PP2C is from wheat; with Protein phosphatase 2C ABI1 (Triticum aestivum)
T2 sequence (Q8S8E3 1-215): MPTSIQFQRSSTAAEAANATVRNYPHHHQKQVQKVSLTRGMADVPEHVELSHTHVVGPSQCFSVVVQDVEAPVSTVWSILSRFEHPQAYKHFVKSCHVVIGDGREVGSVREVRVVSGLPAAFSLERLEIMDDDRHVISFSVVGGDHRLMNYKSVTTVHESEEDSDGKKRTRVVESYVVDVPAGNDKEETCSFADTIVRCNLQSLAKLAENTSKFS
T2 sequence (A5A6P8 1-479 partner): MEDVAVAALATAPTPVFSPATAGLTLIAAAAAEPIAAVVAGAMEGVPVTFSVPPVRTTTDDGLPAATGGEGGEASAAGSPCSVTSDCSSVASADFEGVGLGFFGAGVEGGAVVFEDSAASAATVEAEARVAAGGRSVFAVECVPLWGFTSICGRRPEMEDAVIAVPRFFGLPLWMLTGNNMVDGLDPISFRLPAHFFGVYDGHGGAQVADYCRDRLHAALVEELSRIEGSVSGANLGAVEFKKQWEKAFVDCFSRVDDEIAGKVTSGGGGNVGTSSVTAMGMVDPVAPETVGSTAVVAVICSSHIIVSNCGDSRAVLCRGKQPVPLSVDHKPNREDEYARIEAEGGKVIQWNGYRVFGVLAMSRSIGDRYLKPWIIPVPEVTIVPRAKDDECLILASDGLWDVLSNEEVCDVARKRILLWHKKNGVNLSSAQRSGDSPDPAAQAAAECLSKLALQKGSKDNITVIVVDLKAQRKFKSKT

AtABI1 (A. thaliana), sequence (P49597 whole entry): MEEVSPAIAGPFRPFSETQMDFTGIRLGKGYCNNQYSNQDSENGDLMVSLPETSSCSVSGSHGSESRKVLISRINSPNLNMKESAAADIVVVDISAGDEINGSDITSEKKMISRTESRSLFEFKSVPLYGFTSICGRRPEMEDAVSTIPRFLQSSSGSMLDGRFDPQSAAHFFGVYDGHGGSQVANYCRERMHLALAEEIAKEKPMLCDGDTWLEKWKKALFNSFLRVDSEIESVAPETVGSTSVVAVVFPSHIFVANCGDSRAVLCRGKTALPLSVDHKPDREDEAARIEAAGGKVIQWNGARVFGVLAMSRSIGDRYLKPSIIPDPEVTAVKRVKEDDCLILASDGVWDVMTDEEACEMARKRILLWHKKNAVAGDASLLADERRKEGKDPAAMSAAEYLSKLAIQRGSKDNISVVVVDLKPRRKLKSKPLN

- Bradi2g41950 phosphatase activity with receptor and PBI352 (Figure C in S2 File; n = 1) (% inhibition of PP2C) [1]: 90
Compound: Bradi3g09580 (receptor)

- Bradi2g41950 phosphatase activity with receptor and PBI352 (Figure C in S2 File; n = 1) (% inhibition of PP2C) [1]: 90
Compound: Bradi2g32250 (receptor)

- PP2C phosphatase activity, receptor to PP2C 10:1, with 0.1 uM PBI352 (Fig 2B) (% decrease in PP2C activity) (TaABI1 (wheat) [2]): 30
- PP2C phosphatase activity, receptor to PP2C 10:1, with 0.1 uM PBI354 (Fig 2C) (% decrease in PP2C activity) (TaABI1 (wheat) [2]): 0
- PP2C phosphatase activity, receptor to PP2C 10:1, with 0.1 uM PBI352 (Fig 2B) (% decrease in PP2C activity) (AtABI1 (A. thaliana)): 30
- PP2C phosphatase activity, receptor to PP2C 10:1, with 0.1 uM PBI354 (Fig 2C) (% decrease in PP2C activity) (AtABI1 (A. thaliana)): 0
- TaABI1 phosphatase activity (4-methylumbelliferyl phosphate) with the receptor, on addition of ABA (Figure B in S2 File) (% reduction of phosphatase activity) (TaABI1 (wheat) [3]): 90
Compound: Ta_PYL2DS_FL (receptor)

Compound: CO[C@]1(/C=C/C(C)=C\C(=O)O)C(C)=CC(=O)CC1(C)C [PBI352]
- % inhibition of PP2C [4]: subfamily III receptor Bd1g37810 is similar to that of the subfamily II, Ta_PYL2DS_FL
- % inhibition of PP2C (AtPYL6 (with TaABI1)): the three A. thaliana receptors against the Ta_ABI1 PP2C were plotted
